Test results reported in patent publication US20240209029A1, “ADIPONECTIN GLYCOPEPTIDES AND COMPOSITIONS AND METHODS OF USE THEREOF” (The University of Hong Kong, priority 2021, published 2024).

Tested on: MDA-MB-231 cells
Test: Cancer cell proliferative assay (anti-proliferative activity, manual cell counting)
Assay type: cell-based, human
Description: FIGS. 3A-3B are bar graphs showing the Emax (FIG. 3A) and EC50 (FIG. 3B) of adiponectin or peptides with no glycans (hAdn-WM), or mono-, di-, tri- and tetra-glycans. The glyACD and adiponectin elicit synergistic anti-proliferative activity in human MDA-MB-231 cells. After serum starvation for 24 hours, MDA-MB-231 cells were treated with different concentrations of hAdn-WM, glyACD, full-length human adiponectin, or their combinations. After incubation for another 24 hours, cells were harvested for manual counting. FIG. 3C is a graph showing the inhibition rate on MDA-MB-231 cells of the indicated peptides. MDA-MB-231 cells were treated with different concentrations of adiponectin in the absence or presence of low (2.5 μg/ml) or high (20 μg/ml) doses of hAdn-WM or hAdn-WM656877101. FIG. 3D is a heatmap showing the percentage inhibition on cell growth. MDA-MB-231 cells were treated with 0, 0.22, 0.33, 0.49, 0.74, 1.11, 1.67, 2.5 μg/ml adiponectin in combination with 0, 0.3125, 0.625, 1.25, 2.5, 5, 10, 20 μg/ml hAdn-WM or hAdn-WM656877101. The percentage inhibition on cell growth was calculated and indicated by different intensity of the blue color. Data are presented as mean±SEM (n=6). *, P<0.05 vs full-length human adiponectin; ♦, P<0.05 vs peptide with no glycans (hAdn-WM); ▴, P<0.05 vs peptide with tetra-glycans (hAdn-WM656877101).
MDA-MB-231 cells were cultured in DMEM supplemented with 10% FBS and 1% penicillin-streptomycin-fungisone at 37° C. and under 5% CO2 95% humidified air. After harvesting, cells were seeded at a density of 3000 cells per well in 96-well plates and then cultured for 24 hours. After fasting in DMEM with 0.5% FBS for 24 hours, cells were subsequently stimulated with 2.5% FBS in the presence of peptides, human adiponectin or other drugs. The viable cell numbers at 24 hours at different doses were manually counted by mixing with trypan blue dye for analysis. The maximum inhibition rate (Emax) and half maximal effective concentration (EC50) were used to evaluate the anti-tumor activity of peptides and adiponectin. […]

[1] = 24 hours incubation, viable cells manually counted

EC50 [1]: 0.33 ± 0.11 µg/mL
B1: hAdiponectin: full-length human adiponectin, circulating glycoprotein hormone of 244 amino acids (SEQ ID NO:1) (protein, listed as Homo sapiens)
chain: MLLLGAVLLLLALPGHDQETTTQGPGVLLPLPKGACTGWMAGIPGHPGHNGAPGRDGRDGTPGEKGEKGDPGLIGPKGDIGETGVPGAEGPRGFPGIQGRKGEPGEGAYVYRSAFSVGLETYVTIPNMPIRFTKIFYNQQNHYDGSTGKFHCNIPGLYYFAYHITVYMKDVKVSLFKKDKAMLFTYDQYQENNVDQASGSVLLHLEVGDQVWLQVYGEGERNGLYADNDNDSTFTGFLLYHDTN
Emax (%) maximum inhibition rate [1]: 69.3 ± 3.34%
Emax of human adiponectin (adiponectin alone (absence of peptide), FIG. 3C): 66.7±4.29%
